Test results published in article doi:10.1101/2021.01.04.424714 (bioRxiv, 2021).

B1: bacteriophage T7 gp16 core protein (natural protein, UniProt P03726 1-1318, looked up)
chain: MDKYDKNVPSDYDGLFQKAADANGVSYDLLRKVAWTESRFVPTAKSKTGPLGMMQFTKATAKALGLRVTDGPDDDRLNPELAINAAAKQLAGLVGKFDGDELKAALAYNQGEGRLGNPQLEAYSKGDFASISEEGRNYMRNLLDVAKSPMAGQLETFGGITPKGKGIPAEVGLAGIGHKQKVTQELPESTSFDVKGIEQEATAKPFAKDFWETHGETLDEYNSRSTFFGFKNAAEAELSNSVAGMAFRAGRLDNGFDVFKDTITPTRWNSHIWTPEELEKIRTEVKNPAYINVVTGGSPENLDDLIKLANENFENDSRAAEAGLGAKLSAGIIGAGVDPLSYVPMVGVTGKGFKLINKALVVGAESAALNVASEGLRTSVAGGDADYAGAALGGFVFGAGMSAISDAVAAGLKRSKPEAEFDNEFIGPMMRLEARETARNANSADLSRMNTENMKFEGEHNGVPYEDLPTERGAVVLHDGSVLSASNPINPKTLKEFSEVDPEKAARGIKLAGFTEIGLKTLGSDDADIRRVAIDLVRSPTGMQSGASGKFGATASDIHERLHGTDQRTYNDLYKAMSDAMKDPEFSTGGAKMSREETRYTIYRRAALAIERPELQKALTPSERIVMDIIKRHFDTKRELMENPAIFGNTKAVSIFPESRHKGTYVPHVYDRHAKALMIQRYGAEGLQEGIARSWMNSYVSRPEVKARVDEMLKELHGVKEVTPEMVEKYAMDKAYGISHSDQFTNSSIIEENIEGLVGIENNSFLEARNLFDSDLSITMPDGQQFSVNDLRDFDMFRIMPAYDRRVNGDIAIMGSTGKTTKELKDEILALKAKAEGDGKKTGEVHALMDTVKILTGRARRNQDTVWETSLRAINDLGFFAKNAYMGAQNITEIAGMIVTGNVRALGHGIPILRDTLYKSKPVSAKELKELHASLFGKEVDQLIRPKRADIVQRLREATDTGPAVANIVGTLKYSTQELAARSPWTKLLNGTTNYLLDAARQGMLGDVISATLTGKTTRWEKEGFLRGASVTPEQMAGIKSLIKEHMVRGEDGKFTVKDKQAFSMDPRAMDLWRLADKVADEAMLRPHKVSLQDSHAFGALGKMVMQFKSFTIKSLNSKFLRTFYDGYKNNRAIDAALSIITSMGLAGGFYAMAAHVKAYALPKEKRKEYLERALDPTMIAHAALSRSSQLGAPLAMVDLVGGVLGFESSKMARSTILPKDTVKERDPNKPYTSREVMGAMGSNLLEQMPSAGFVANVGATLMNAAGVVNSPNKATEQDFMTGLMNSTKELVPNDPLTQQLVLKIYEANGVNLRERRK
B2: bacteriophage T7 gp15 core protein (natural protein, UniProt P03725 1-747, looked up)
chain: MSKIESALQAAQPGLSRLRGGAGGMGYRAATTQAEQPRSSLLDTIGRFAKAGADMYTAKEQRARDLADERSNEIIRKLTPEQRREALNNGTLLYQDDPYAMEALRVKTGRNAAYLVDDDVMQKIKEGVFRTREEMEEYRHSRLQEGAKVYAEQFGIDPEDVDYQRGFNGDITERNISLYGAHDNFLSQQAQKGAIMNSRVELNGVLQDPDMLRRPDSADFFEKYIDNGLVTGAIPSDAQATQLISQAFSDASSRAGGADFLMRVGDKKVTLNGATTTYRELIGEEQWNALMVTAQRSQFETDAKLNEQYRLKINSALNQEDPRTAWEMLQGIKAELDKVQPDEQMTPQREWLISAQEQVQNQMNAWTKAQAKALDDSMKSMNKLDVIDKQFQKRINGEWVSTDFKDMPVNENTGEFKHSDMVNYANKKLAEIDSMDIPDGAKDAMKLKYLQADSKDGAFRTAIGTMVTDAGQEWSAAVINGKLPERTPAMDALRRIRNADPQLIAALYPDQAELFLTMDMMDKQGIDPQVILDADRLTVKRSKEQRFEDDKAFESALNASKAPEIARMPASLRESARKIYDSVKYRSGNESMAMEQMTKFLKESTYTFTGDDVDGDTVGVIPKNMMQVNSDPKSWEQGRDILEEARKGIIASNPWITNKQLTMYSQGDSIYLMDTTGQVRVRYDKELLSKVWSENQKKLEEKAREKALADVNKRAPIVAATKAREAAAKRVREKRKQTPKFIYGRKE

What was measured:
[1] = molecular target: B2; assay: AUC
[2] = molecular target: the molecule itself; assay: AUC + other: dynamic light scattering

B1
stoichiometry N [1]: 6 gp16 monomers per gp15 hexamer

B2
stoichiometry N [2]: 6
